Assay results from publication doi:10.1101/188169.

Biological target: endogenous α-SYN from human postmortem brain (substantia nigra) (human (endogenous in postmortem brain)) (UniProt P37840)

Substance: endogenous α-SYN from human postmortem brain (substantia nigra) (from UniProt P37840 1-140) (natural protein)
- percent of detected α-SYN that is oligomeric (PD brain): 56%
- percent of detected α-SYN that is oligomeric (control brain): 23%
